From PMC9482650, “Quantitative fragmentomics allow affinity mapping of interactomes” (Nature Communications, 2022)

T1: NHERF3_3, Q5T2W1
T1 sequence (Q5T2W1 238-333, limits assumed, looked up): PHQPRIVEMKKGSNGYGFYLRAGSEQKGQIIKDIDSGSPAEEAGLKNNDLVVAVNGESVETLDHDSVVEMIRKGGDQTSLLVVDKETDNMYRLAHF

T2: SNTA1, Q13424
T2 sequence (Q13424 82-180, limits assumed, looked up): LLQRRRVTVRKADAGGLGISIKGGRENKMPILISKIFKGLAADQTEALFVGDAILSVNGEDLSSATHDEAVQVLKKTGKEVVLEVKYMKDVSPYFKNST

T3: ARHGEF11, O15085
T3 sequence (O15085 42-136, limits assumed, looked up): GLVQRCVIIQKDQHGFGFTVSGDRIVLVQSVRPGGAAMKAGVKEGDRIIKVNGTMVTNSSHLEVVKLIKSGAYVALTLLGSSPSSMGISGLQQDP

T4: APBA1_1, Q02410
T4 sequence (Q02410 651-752, limits assumed, looked up): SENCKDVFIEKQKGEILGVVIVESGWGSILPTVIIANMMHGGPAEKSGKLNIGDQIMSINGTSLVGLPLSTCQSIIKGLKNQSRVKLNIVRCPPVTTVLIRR

T5: FRMPD1, Q5SYB0
T5 sequence (Q5SYB0 52-145, limits assumed, looked up): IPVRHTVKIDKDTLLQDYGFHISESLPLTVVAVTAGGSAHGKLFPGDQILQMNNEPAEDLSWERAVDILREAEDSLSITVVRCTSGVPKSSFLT

T6: LIN7B, Q9HAP6
T6 sequence (Q9HAP6 88-185, limits assumed, looked up): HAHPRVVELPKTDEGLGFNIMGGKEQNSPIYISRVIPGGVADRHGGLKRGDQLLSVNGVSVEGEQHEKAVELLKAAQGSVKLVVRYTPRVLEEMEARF

T7: DLG3_2, Q92796
T7 sequence (Q92796 221-321, limits assumed, looked up): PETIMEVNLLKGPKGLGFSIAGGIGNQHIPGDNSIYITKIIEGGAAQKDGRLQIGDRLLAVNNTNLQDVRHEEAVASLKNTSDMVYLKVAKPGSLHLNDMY

T8: HTRA3, P83110
T8 sequence (P83110 354-453, limits assumed, looked up): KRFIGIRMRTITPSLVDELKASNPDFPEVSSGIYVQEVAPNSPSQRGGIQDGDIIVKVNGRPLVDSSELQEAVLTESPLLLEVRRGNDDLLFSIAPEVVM

T9: RHPN1, Q8TCX5
T9 sequence (Q8TCX5 508-602, limits assumed, looked up): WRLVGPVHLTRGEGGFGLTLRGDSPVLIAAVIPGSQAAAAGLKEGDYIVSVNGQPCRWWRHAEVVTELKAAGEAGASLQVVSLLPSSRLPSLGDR


Key:
Test in all cases: holdup assay
Design in all cases: key: below the threshold = too weak to quantify, mostly under pKd 3.1 to 4
Details in all cases: plain residues with an end cap or a label only (N-terminal biotin on a linker: ado-ado)
NHERF3_3, Q5T2W1 = target: T1, NHERF3_3, Q5T2W1
MAGI3_2, Q5TCQ9 = target: MAGI3_2, Q5TCQ9
MAGI3_2, Q5TCQ9, sequence (Q5TCQ9 398-503): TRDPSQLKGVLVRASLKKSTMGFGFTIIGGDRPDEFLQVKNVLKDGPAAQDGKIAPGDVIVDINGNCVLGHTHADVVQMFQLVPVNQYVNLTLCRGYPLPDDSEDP

SNTA1, Q13424 = target: T2, SNTA1, Q13424
ARHGEF11, O15085 = target: T3, ARHGEF11, O15085
FRMPD2_3, Q68DX3 = target: FRMPD2_3, Q68DX3
FRMPD2_3, Q68DX3, sequence (Q68DX3 1073-1166): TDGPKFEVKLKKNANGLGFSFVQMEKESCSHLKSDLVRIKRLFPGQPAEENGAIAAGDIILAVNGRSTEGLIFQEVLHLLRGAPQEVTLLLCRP

PARD3_3, Q8TEW0 = target: PARD3_3, Q8TEW0
PARD3_3, Q8TEW0, sequence (Q8TEW0 582-685): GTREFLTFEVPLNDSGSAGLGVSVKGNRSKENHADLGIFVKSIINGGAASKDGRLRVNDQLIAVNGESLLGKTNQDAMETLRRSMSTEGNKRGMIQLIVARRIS

APBA1_1, Q02410 = target: T4, APBA1_1, Q02410
GIPC2, Q8TF65 = target: GIPC2, Q8TF65
GIPC2, Q8TF65, sequence (Q8TF65 112-203): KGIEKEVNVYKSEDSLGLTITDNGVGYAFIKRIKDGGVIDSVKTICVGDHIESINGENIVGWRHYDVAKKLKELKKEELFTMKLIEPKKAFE

MAST2, Q6P0Q8 = target: MAST2, Q6P0Q8
MAST2, Q6P0Q8, sequence (Q6P0Q8 1099-1202): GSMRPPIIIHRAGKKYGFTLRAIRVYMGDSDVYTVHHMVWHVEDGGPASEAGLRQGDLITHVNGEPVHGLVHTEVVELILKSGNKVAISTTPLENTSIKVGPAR

FRMPD1, Q5SYB0 = target: T5, FRMPD1, Q5SYB0
Inadl_4, Q8NI35 = target: Inadl_4, Q8NI35
Inadl_4, Q8NI35, sequence (Q8NI35 547-651): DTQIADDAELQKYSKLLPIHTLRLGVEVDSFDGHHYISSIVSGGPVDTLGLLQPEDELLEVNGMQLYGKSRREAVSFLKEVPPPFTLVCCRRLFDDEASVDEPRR

Inadl_10, Q8NI35 = target: Inadl_10, Q8NI35
Inadl_10, Q8NI35, sequence (Q8NI35 1673-1763): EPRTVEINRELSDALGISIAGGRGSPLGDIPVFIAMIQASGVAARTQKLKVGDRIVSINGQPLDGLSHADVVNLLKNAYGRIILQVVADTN

LIN7B, Q9HAP6 = target: T6, LIN7B, Q9HAP6
LNX1_3, Q8TBB1 = target: LNX1_3, Q8TBB1
LNX1_3, Q8TBB1, sequence (Q8TBB1 500-596): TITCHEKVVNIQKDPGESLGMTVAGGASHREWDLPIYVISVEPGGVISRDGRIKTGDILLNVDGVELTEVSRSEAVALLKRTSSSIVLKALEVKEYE

Inadl_1, Q8NI35 = target: Inadl_1, Q8NI35
Inadl_1, Q8NI35, sequence (Q8NI35 113-229): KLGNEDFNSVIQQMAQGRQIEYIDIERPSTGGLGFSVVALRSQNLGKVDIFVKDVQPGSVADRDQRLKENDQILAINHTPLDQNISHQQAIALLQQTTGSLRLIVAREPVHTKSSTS

MAGI2_3, Q86UL8 = target: MAGI2_3, Q86UL8
MAGI2_3, Q86UL8, sequence (Q86UL8 600-682): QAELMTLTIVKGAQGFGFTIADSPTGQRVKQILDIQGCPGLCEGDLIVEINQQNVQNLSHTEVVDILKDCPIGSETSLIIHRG

FRMPD2_1, Q68DX3 = target: FRMPD2_1, Q68DX3
FRMPD2_1, Q68DX3, sequence (Q68DX3 770-861): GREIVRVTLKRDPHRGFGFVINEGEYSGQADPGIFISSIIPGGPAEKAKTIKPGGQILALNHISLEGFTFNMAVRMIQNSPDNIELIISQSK

Inadl_8, Q8NI35 = target: Inadl_8, Q8NI35
Inadl_8, Q8NI35, sequence (Q8NI35 1425-1530): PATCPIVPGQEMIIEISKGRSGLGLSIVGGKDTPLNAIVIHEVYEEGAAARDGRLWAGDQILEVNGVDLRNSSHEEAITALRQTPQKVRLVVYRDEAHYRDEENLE

GORASP1, Q9BQQ3 = target: GORASP1, Q9BQQ3
GORASP1, Q9BQQ3, sequence (Q9BQQ3 1-208): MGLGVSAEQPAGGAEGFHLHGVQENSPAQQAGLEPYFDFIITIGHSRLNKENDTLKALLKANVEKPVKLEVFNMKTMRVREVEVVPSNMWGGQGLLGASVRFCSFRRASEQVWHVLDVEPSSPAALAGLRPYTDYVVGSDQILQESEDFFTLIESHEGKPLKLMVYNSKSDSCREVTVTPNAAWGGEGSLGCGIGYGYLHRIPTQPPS

DLG4_2, P78352 = target: DLG4_2, P78352
DLG4_2, P78352, sequence (P78352 155-259): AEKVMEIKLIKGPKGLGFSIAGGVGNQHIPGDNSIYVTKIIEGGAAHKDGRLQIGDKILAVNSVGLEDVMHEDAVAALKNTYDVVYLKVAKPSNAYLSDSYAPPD

LNX1_2, Q8TBB1 = target: LNX1_2, Q8TBB1
LNX1_2, Q8TBB1, sequence (Q8TBB1 371-470): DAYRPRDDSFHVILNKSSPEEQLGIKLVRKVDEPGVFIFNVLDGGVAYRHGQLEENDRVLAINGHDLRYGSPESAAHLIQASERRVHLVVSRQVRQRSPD

DLG3_2, Q92796 = target: T7, DLG3_2, Q92796
HTRA3, P83110 = target: T8, HTRA3, P83110
NHERF4_4, Q86UT5 = target: NHERF4_4, Q86UT5
NHERF4_4, Q86UT5, sequence (Q86UT5 464-550): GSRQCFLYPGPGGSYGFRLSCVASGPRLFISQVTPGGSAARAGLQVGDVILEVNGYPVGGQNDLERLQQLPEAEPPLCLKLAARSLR

MAGI1_2, Q96QZ7 = target: MAGI1_2, Q96QZ7
MAGI1_2, Q96QZ7, sequence (Q96QZ7 456-580): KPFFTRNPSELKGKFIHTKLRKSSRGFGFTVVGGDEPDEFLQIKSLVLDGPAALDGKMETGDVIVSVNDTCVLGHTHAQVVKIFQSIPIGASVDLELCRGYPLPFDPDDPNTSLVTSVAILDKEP

RHPN1, Q8TCX5 = target: T9, RHPN1, Q8TCX5
GOPC, Q9HD26 = target: GOPC, Q9HD26
Inadl_6, Q8NI35 = target: Inadl_6, Q8NI35
Inadl_6, Q8NI35, sequence (Q8NI35 1058-1167): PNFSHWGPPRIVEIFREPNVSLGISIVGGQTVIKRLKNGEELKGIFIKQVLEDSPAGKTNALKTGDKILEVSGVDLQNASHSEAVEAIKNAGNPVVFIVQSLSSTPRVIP

Row | Binder | pKd (NHERF3_3, Q5T2W1) | pKd (MAGI3_2, Q5TCQ9) | pKd (SNTA1, Q13424) | pKd (ARHGEF11, O15085) | pKd (FRMPD2_3, Q68DX3) | pKd (PARD3_3, Q8TEW0) | pKd (APBA1_1, Q02410) | pKd (GIPC2, Q8TF65) | pKd (MAST2, Q6P0Q8) | pKd (FRMPD1, Q5SYB0) | pKd (Inadl_4, Q8NI35) | pKd (Inadl_10, Q8NI35) | pKd (LIN7B, Q9HAP6) | pKd (LNX1_3, Q8TBB1) | pKd (Inadl_1, Q8NI35) | pKd (MAGI2_3, Q86UL8) | pKd (FRMPD2_1, Q68DX3) | pKd (Inadl_8, Q8NI35) | pKd (GORASP1, Q9BQQ3) | pKd (DLG4_2, P78352) | also measured
1 | DDENIRTSDV [PLEKHA2, Q9HB19] | below the threshold | 4.05 | 5.11 | 4.2 | below the threshold | below the threshold | below the threshold | 3.84 | 4.9 | below the threshold | below the threshold | below the threshold | below the threshold | below the threshold | below the threshold | below the threshold | below the threshold | 4.94 | below the threshold | 4.38 | pKd (LNX1_2, Q8TBB1): below the threshold; pKd (DLG3_2, Q92796): 4.38; pKd (HTRA3, P83110): below the threshold; pKd (NHERF4_4, Q86UT5): below the threshold; pKd (MAGI1_2, Q96QZ7): below the threshold; pKd (RHPN1, Q8TCX5): 3.92; pKd (GOPC, Q9HD26): 3.5; pKd (Inadl_6, Q8NI35): below the threshold
2 | KKMPSIESDV [GRIN2A, Q12879] | below the threshold | 4.32 | 4.59 | below the threshold | below the threshold | below the threshold | below the threshold | 3.84 | 4.95 | below the threshold | below the threshold | below the threshold | 3.71 | below the threshold | below the threshold | below the threshold | below the threshold | 3.76 | below the threshold | 5.29 | pKd (LNX1_2, Q8TBB1): below the threshold; pKd (DLG3_2, Q92796): 5.25; pKd (HTRA3, P83110): below the threshold; pKd (NHERF4_4, Q86UT5): below the threshold; pKd (MAGI1_2, Q96QZ7): below the threshold; pKd (RHPN1, Q8TCX5): 3.83; pKd (GOPC, Q9HD26): below the threshold; pKd (Inadl_6, Q8NI35): below the threshold
3 | HSGYRLNDYV [CLDN14, O95500] | below the threshold | below the threshold | below the threshold | 3.71 | below the threshold | 3.83 | below the threshold | below the threshold | 3.89 | below the threshold | below the threshold | below the threshold | below the threshold | below the threshold | below the threshold | below the threshold | below the threshold | 3.87 | 3.75 | below the threshold | pKd (LNX1_2, Q8TBB1): 3.61; pKd (DLG3_2, Q92796): below the threshold; pKd (HTRA3, P83110): 4.55; pKd (NHERF4_4, Q86UT5): 3.94; pKd (MAGI1_2, Q96QZ7): below the threshold; pKd (RHPN1, Q8TCX5): below the threshold; pKd (GOPC, Q9HD26): below the threshold; pKd (Inadl_6, Q8NI35): below the threshold
4 | TSQESEDTYL [TBC1D10A, Q9BXI6] | 3.59 | below the threshold | 3.91 | below the threshold | below the threshold | 4.63 | below the threshold | below the threshold | 5.41 | below the threshold | below the threshold | below the threshold | below the threshold | below the threshold | below the threshold | below the threshold | below the threshold | below the threshold | below the threshold | below the threshold | pKd (LNX1_2, Q8TBB1): below the threshold; pKd (DLG3_2, Q92796): 3.61; pKd (HTRA3, P83110): below the threshold; pKd (NHERF4_4, Q86UT5): below the threshold; pKd (MAGI1_2, Q96QZ7): below the threshold; pKd (RHPN1, Q8TCX5): 4.45; pKd (GOPC, Q9HD26): below the threshold; pKd (Inadl_6, Q8NI35): 3.78
